# Results as given in publication PMC4811204 (Nature structural & molecular biology, 2013).
# Where no end group is shown, it is not given here. [ ]: non-standard residue; d: D form. pS = N[C@@H](COP(=O)(O)O)C(=O)O
# B1: GST-tagged CNOT1(800–1015) (domain or fragment, human, UniProt A5YKK6-2 800-1015, looked up)
# chain: NNDPFVQRKLGTSGLNQPTFQQTDLSQVWPEANQHFSKEIDDEANSYFQRIYNHPPHPTMSVDEVLEMLQRFKDSTIKREREVFNCMLRNLFEEYRFFPQYPDKELHITACLFGGIIEKGLVTYMALGLALRYVLEALRKPFGSKMYYFGIAALDRFKNRLKDYPQYCQHLASISHFMQFPHHLQEYIEYGQQSRDPPVKMQGSITTPGSIALAQA
# B2: MBP-fused full-length human Tristetraprolin (TTP) (natural protein, UniProt P26651 1-326, looked up)
# chain: MDLTAIYESLLSLSPDVPVPSDHGGTESSPGWGSSGPWSLSPSDSSPSGVTSRLPGRSTSLVEGRSCGWVPPPPGFAPLAPRLGPELSPSPTSPTATSTTPSRYKTELCRTFSESGRCRYGAKCQFAHGLGELRQANRHPKYKTELCHKFYLQGRCPYGSRCHFIHNPSEDLAAPGHPPVLRQSISFSGLPSGRRTSPPPPGLAGPSLSSSSFSPSSSPPPPGDLPLSPSAFSAAPGTPLARRDPTPVCCPSCRRATPISVWGPLGGLVRTPSVQSLGSDPDEYASSGSSLGGSDSPVFEAGVFAPPQPVAAPRRLPIFNRISVSE
# How the values were obtained:
# [1] = biological target: B2; assay: pull-down
# [2] = biological target: T1, MBP-TTP lacking amino acids 179–192 (TTP-MUT1) (human, UniProt P26651 1-326, lacking amino acids 179–192); assay: pull-down
# T1 sequence (looked up): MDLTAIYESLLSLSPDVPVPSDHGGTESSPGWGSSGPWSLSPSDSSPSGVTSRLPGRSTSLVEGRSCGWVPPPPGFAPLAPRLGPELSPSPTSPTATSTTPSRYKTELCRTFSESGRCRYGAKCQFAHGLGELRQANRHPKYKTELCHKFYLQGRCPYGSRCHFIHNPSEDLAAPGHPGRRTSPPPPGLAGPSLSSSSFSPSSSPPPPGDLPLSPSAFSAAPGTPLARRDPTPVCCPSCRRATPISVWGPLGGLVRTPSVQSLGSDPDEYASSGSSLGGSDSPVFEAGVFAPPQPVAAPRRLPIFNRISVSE
# [3] = biological target: GST-fused CNOT1 fragment, residues 727–1266 (human, UniProt A5YKK6-2 727-1266); assay: pull-down
# [4] = biological target: CNOT1(800–999), TTP-interacting fragment of CNOT1 (human, UniProt A5YKK6-2 800-999); assay: ITC
# [5] = biological target: B1; assay: pull-down
binder,measurement,setting,value
B1,binding result,[1],binds
same,binding result,[2],binds
B2,binding result,[3],binds
"APRRLPIANRISVSE [TTP peptide 312–326, Phe319Ala mutant]",Kd,[4],~7 mM
"MBP-tagged TTP-CTD with Asn320 mutated to alanine (domain or fragment, human, UniProt P26651 174-326, looked up) APGHPPVLRQSISFSGLPSGRRTSPPPPGLAGPSLSSSSFSPSSSPPPPGDLPLSPSAFSAAPGTPLARRDPTPVCCPSCRRATPISVWGPLGGLVRTPSVQSLGSDPDEYASSGSSLGGSDSPVFEAGVFAPPQPVAAPRRLPIFARISVSE",binding result,[5],binds
APRRLPIFNRI[pS]VSE [TTP-CIM peptide 312–326 containing phospho-Ser323],Kd,[4],~0.625 mM
